Measurements published in patent publication US20190062420A1 (Janssen / Centocor, published 2019).

T1: human FcγRIIA (NM_021642) expressed on cells (human, UniProt P12318 36-317)
T1 construct: Transiently expressed on Expi293F cells; also used here for FcγRIIA on human macrophages in the ADCP assay; also called Expi293F FcγRIIA; HEK293F cells expressing FcγRIIA
T1 sequence: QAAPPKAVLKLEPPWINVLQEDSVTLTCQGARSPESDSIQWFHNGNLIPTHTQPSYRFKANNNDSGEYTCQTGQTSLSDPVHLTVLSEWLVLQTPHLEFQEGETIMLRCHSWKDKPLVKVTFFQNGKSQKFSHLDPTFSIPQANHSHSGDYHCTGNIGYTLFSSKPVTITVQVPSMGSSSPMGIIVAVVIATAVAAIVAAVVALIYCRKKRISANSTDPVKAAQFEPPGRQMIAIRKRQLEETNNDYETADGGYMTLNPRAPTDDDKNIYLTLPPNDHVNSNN

T2: human OX40 expressed on HEK-Blue: OX40 cells (human, UniProt P43489 29-277)
T2 construct: also called CD134
T2 sequence: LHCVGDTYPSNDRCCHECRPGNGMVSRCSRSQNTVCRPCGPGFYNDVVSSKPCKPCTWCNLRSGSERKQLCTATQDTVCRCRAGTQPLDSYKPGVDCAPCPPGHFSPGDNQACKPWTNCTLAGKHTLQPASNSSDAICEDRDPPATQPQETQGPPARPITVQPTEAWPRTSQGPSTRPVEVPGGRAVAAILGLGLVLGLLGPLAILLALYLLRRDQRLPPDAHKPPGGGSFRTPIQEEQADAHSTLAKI

T3: FcγRIIB protein (human, UniProt P31994 43-217, biotinylated (SureLINK Biotin Kit) in the ELISA of Example 1)
T3 sequence: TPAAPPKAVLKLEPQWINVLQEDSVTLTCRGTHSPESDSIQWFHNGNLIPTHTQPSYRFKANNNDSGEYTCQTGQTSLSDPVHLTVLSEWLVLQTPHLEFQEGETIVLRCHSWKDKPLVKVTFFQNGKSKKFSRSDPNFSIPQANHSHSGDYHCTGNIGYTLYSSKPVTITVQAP

T4: FcγRIIA protein (human, UniProt P12318 36-217, biotinylated (SureLINK Biotin Kit) in the ELISA of Example 1)
T4 sequence: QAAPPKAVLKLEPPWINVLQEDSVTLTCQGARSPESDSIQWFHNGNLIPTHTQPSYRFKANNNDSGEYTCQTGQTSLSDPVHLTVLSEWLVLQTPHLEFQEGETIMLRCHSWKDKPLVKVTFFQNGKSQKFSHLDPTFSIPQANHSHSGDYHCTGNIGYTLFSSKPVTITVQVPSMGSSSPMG

T5: human FcγRIIB (NM_004001) expressed on cells (human, UniProt P31994 43-310)
T5 construct: Transiently expressed on Expi293F cells; also called Expi293F FcγRIIB; HEK293F cells expressing FcγRIIB
T5 sequence: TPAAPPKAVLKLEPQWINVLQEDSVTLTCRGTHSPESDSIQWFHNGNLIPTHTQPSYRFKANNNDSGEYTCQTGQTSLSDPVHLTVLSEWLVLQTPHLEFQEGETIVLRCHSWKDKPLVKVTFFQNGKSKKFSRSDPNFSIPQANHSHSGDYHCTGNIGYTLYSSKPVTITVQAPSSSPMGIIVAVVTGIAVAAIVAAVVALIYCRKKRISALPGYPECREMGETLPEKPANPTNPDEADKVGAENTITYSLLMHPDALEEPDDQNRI


Experiments:
[1] = target: T1, human FcγRIIA (NM_021642) expressed on …; assay: flow cytometry; Expi293F cells transfected with FcγRIIA
Method: (§1) Plasmids expressing cDNAs encoding human FcγRI (NM_000566) (SEQ ID NO: 44), FcγRIIA (NM_021642) (SEQ ID NO: 2), FcγRIIB (NM_004001) (SEQ ID NO: 3), and FcγRIIIA (NM_000569) (SEQ ID NO: 45) (Origene) were transiently transfected into Expi293F cells by ExpiFectamine293 transfection kit (Life Technologies). Flow cytometry assays were performed 48 h after transfection.
(§2) 2×10⁵ cells per well were seeded in 96-well plate and blocked in BSA Stain Buffer (BD Biosciences, San Jose, USA) for 30 min at 4° C. Cells were incubated with test mAbtyrin on ice for 1.5 h at 4° C. After being washed twice with BSA stain buffer, the cells were incubated with R-PE labeled anti-human or anti-mouse IgG secondary antibody (Jackson Immunoresearch Laboratories) for 45 min at 4° C. The cells were washed twice in stain buffer and then resuspended in 150 μL of Stain Buffer containing 1:200 diluted DRAQ7 live/dead stain (Cell Signaling Technology, Danvers, USA). PE and DRAQ7 signals of the stained cells were detected by Miltenyi MACSQuant flow cytometer (Miltenyi Biotec, Auburn, USA) using B2 and B4 channel respectively. Live cells were gated on DRAQ7 exclusion and the geometric mean fluorescence signals were determined for at least 10,000 live events collected. FlowJo software (Tree Star) was used for analysis. Data was plotted as the logarithm of antibody concentration versus mean fluorescence signals. Nonlinear regression analysis was performed by GraphPad Prism 6 (GraphPad Software, Inc.) and EC₅₀ values were calculated.

[2] = target: T2, human OX40 expressed on HEK-Blue: OX40 …; assay: flow cytometry; HEK-Blue: OX40 cells
Procedure, shortened: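 HEK-Blue Null 1 cells stably transfected with human OX40 were blocked, then incubated with mAbtyrin for 1.5 h at 4 °C. Binding was detected with a PE anti-human IgG F(ab′)₂ secondary, gating on DRAQ7-excluding live cells and taking geometric mean fluorescence. EC50 came from nonlinear regression versus log antibody concentration.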

[3] = target: T1, human FcγRIIA (NM_021642) expressed on …; assay: cell-based or functional assay
[4] = target: human FcγRIIIA (NM_000569) expressed on cells (human, UniProt P08637 17-254); assay: cell-based or functional assay
human FcγRIIIA (NM_000569) expressed on cells, sequence (P08637 17-254 limits assumed): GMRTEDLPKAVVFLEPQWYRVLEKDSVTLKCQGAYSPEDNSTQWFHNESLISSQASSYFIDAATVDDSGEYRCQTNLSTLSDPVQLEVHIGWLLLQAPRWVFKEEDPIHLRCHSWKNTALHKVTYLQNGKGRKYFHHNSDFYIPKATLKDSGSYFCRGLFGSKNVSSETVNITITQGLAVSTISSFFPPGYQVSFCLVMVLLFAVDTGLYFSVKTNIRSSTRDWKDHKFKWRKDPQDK

FcγRIIB protein = target: T3, FcγRIIB protein; assay: cell-based or functional assay
FcγRIIA protein = target: T4, FcγRIIA protein; assay: cell-based or functional assay
[5] = target: T5, human FcγRIIB (NM_004001) expressed on …; assay: flow cytometry; Expi293F cells transfected with FcγRIIB
Method: as §1, §2

[6] = target: T5, human FcγRIIB (NM_004001) expressed on …; assay: cell-based or functional assay

EC50 [1] [µg/mL]	Binding to HEK-Blue: OX40 cells (mean signal at 1 µg/ml) [2] [mean fluorescence signal]	EC50 [2] [µg/mL]	ADCP EC50 [3] [µg/mL]	ADCC (fold activation) at 1 µg/ml [4] [fold]	IFNγ production by activated CD4 T cells, plate-coated FcγRIIb (FcγRIIB protein) [pg/mL]	TNFα production by activated CD4 T cells, plate-coated FcγRIIb (FcγRIIB protein) [pg/mL]	IFNγ production by activated CD4 T cells, plate-coated FcγRIIA (FcγRIIA protein) [pg/mL]	TNFα production by activated CD4 T cells, plate-coated FcγRIIA (FcγRIIA protein) [pg/mL]	EC50 [5] [µg/mL]	% activity at 1 µg/ml with Raji cells (HEK-Blue: OX40 NF-κB reporter) [6] [%]	Binder
0.091	9180	0.548	0.0375	1	1330	250	1550	226	0.512	93	OX40SF2IgG2sigma_R2BS29_HC-C (bispecific antibody, mAbtyrin: anti-OX40 antibody OX40SF2, effector silent IgG2sigma, with linker and R2BS29 FN3 domain at the C-terminus of the heavy chain; also called mAbtyrin) heavy: QVQLVQSGAEVKKPGSSVKVSCKASGYTFKDYTMHWVRQAPGQGLEWIGGIYPNNGGSTYNQNFKDRVTLTADKSTSTAYMELSSLRSEDTAVYYCARMGYHGPHLDFDVWGQGTTVTVSSASTKGPSVFPLAPCSRSTSESTAALGCLVKDYFPEPVTVSWNSGALTSGVHTFPAVLQSSGLYSLSSVVTVPSSNFGTQTYTCNVDHKPSNTKVDKTVERKCCVECPPCPAPPAAASSVFLFPPKPKDTLMISRTPEVTCVVVDVSAEDPEVQFNWYVDGVEVHNAKTKPREEQFNSTFRVVSVLTVLHQDWLNGKEYKCKVSNKGLPSSIEKTISKTKGQPREPQVYTLPPSREEMTKNQVSLTCLVKGFYPSDIAVEWESNGQPENNYKTTPPMLDSDGSFFLYSKLTVDKSRWQQGNVFSCSVMHEALHNHYTQKSLSLSPGKGGGGGSGGGGSGGGGSGGGGSLPAPKNLVVSRVTEDSARLSWTAPDAAFDSFPIYYWEYRVGGEAIVLTVPGSERSYDLTGLKPGTEYFVYINGVKGGEESRPLSAIFTT light: DIQMTQSPSSLSASVGDRVTITCKASQDVGAAVAWYQQKPGKAPKLLIYWASTRHTGVPSRFSGSGSGTDFTLTISSLQPEDFATYYCQQYINYPLTFGGGTKVEIKRTVAAPSVFIFPPSDEQLKSGTASVVCLLNNFYPREAKVQWKVDNALQSGNSQESVTEQDSKDSTYSLSSTLTLSKADYEKHKVYACEVTHQGLSSPVTKSFNRGEC
> 10	13900	0.166	> 1	1	70	30	97	28	> 10	2	OX40SF2IgG2sigma (antibody, Anti-OX40 antibody, IgG2 sigma isotype (effector silent Fc: V234A, G237A, P238S, H268A, V309L, A330S, P331S against wild type IgG2); control without FN3 domain; also called parental antibody; parental OX40 antibody) heavy: QVQLVQSGAEVKKPGSSVKVSCKASGYTFKDYTMHWVRQAPGQGLEWIGGIYPNNGGSTYNQNFKDRVTLTADKSTSTAYMELSSLRSEDTAVYYCARMGYHGPHLDFDVWGQGTTVTVSSASTKGPSVFPLAPCSRSTSESTAALGCLVKDYFPEPVTVSWNSGALTSGVHTFPAVLQSSGLYSLSSVVTVPSSNFGTQTYTCNVDHKPSNTKVDKTVERKCCVECPPCPAPPAAASSVFLFPPKPKDTLMISRTPEVTCVVVDVSAEDPEVQFNWYVDGVEVHNAKTKPREEQFNSTFRVVSVLTVLHQDWLNGKEYKCKVSNKGLPSSIEKTISKTKGQPREPQVYTLPPSREEMTKNQVSLTCLVKGFYPSDIAVEWESNGQPENNYKTTPPMLDSDGSFFLYSKLTVDKSRWQQGNVFSCSVMHEALHNHYTQKSLSLSPGK light: DIQMTQSPSSLSASVGDRVTITCKASQDVGAAVAWYQQKPGKAPKLLIYWASTRHTGVPSRFSGSGSGTDFTLTISSLQPEDFATYYCQQYINYPLTFGGGTKVEIKRTVAAPSVFIFPPSDEQLKSGTASVVCLLNNFYPREAKVQWKVDNALQSGNSQESVTEQDSKDSTYSLSSTLTLSKADYEKHKVYACEVTHQGLSSPVTKSFNRGEC
		0.229	0.0393	9	70	30	92	28		9	OX40SF2IgG1 (antibody, Anti-OX40 antibody, wild-type IgG1; control without FN3 domain) heavy: not shown light: DIQMTQSPSSLSASVGDRVTITCKASQDVGAAVAWYQQKPGKAPKLLIYWASTRHTGVPSRFSGSGSGTDFTLTISSLQPEDFATYYCQQYINYPLTFGGGTKVEIKRTVAAPSVFIFPPSDEQLKSGTASVVCLLNNFYPREAKVQWKVDNALQSGNSQESVTEQDSKDSTYSLSSTLTLSKADYEKHKVYACEVTHQGLSSPVTKSFNRGEC
